From patent US20210032313A1 (Daiichi Sankyo, published 2021)

T1: human KLK5 (human, UniProt Q9Y337 67-293)
T1 sequence: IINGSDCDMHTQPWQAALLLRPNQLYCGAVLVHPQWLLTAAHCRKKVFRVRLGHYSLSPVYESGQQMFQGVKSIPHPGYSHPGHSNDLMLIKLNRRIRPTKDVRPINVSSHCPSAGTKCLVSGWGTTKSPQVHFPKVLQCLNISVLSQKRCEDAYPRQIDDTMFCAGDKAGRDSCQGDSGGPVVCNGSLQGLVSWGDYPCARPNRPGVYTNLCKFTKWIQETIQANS

T2: mouse KLK5 (mouse)
T2 chain: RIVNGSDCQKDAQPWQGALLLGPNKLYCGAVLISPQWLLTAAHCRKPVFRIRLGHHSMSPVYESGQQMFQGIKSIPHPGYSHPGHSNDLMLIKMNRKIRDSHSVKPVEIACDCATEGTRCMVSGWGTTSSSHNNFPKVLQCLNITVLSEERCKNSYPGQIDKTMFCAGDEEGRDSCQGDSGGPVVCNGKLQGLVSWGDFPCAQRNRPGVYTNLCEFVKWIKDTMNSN

T3: mouse KLK14 (mouse, UniProt Q8CGR5 24-250)
T3 sequence: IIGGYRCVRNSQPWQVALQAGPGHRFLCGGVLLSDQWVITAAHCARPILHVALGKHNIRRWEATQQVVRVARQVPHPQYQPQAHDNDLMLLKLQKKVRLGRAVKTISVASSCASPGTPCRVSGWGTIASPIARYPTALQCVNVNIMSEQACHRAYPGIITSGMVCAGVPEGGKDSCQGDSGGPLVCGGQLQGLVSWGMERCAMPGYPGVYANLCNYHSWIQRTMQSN

T4: human KLK14 (human, UniProt Q9P0G3 25-251)
T4 sequence: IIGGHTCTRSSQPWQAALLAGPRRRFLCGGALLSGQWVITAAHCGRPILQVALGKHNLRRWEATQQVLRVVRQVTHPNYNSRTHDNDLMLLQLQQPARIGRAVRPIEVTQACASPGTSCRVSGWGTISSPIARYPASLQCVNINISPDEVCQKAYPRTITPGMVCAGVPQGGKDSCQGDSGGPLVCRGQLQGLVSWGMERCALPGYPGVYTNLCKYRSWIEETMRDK

T5: KLK8 (human, UniProt O60259)
T5 construct: prepared by the inventors; 5 nM in the assay; substrate Boc-Val-Pro-Arg-AMC 100 µM; also called Human KLK8; hKLK8
T5 sequence (protease, looked up): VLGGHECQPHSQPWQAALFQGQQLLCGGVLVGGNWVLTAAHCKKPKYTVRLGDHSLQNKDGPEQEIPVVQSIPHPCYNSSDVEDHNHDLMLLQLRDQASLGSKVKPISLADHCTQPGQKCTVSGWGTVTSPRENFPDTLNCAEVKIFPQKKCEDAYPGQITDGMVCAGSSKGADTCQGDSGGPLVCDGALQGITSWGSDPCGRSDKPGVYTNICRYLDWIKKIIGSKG


Experiments:
[1] = biological target: T1, human KLK5; assay: cell-based or functional assay
[2] = biological target: T2, mouse KLK5; assay: cell-based or functional assay
[3] = biological target: mouse KLK7 (mouse, UniProt Q91VE3 26-249); assay: cell-based or functional assay
[4] = biological target: T3, mouse KLK14; assay: cell-based or functional assay
[5] = biological target: T6, Plasmin (human, UniProt P00747); assay: fluorogenic peptide substrate cleavage, 1 µM inhibitor
T6 construct: commercial enzyme (Sigma-Aldrich, P1867); 50 nM in the assay; substrate Boc-Val-Leu-Lys-MCA 100 µM; also called Human plasmin
Protocol: FIG. 3C includes graphs to evaluate the cross-reactivity of each inhibitory peptide with proteases, using the degradation of a peptide substrate as an index. For evaluating the Human plasmin inhibitory activity, plasmin (Sigma-Aldrich Co. LLC, P1867) with a final concentration of 50 nM and a substrate peptide Boc-Val-Leu-Lys-MCA (PEPTIDE […], INC., 3104-v) with a final concentration of 100 μM were used. For evaluating the Human thrombin inhibitory activity, thrombin (Sigma-Aldrich Co. LLC, T6884) with a final concentration of 1 nM and a substrate peptide Boc-Val-Pro-Arg-AMC (R&D Systems, Inc., ES011) with a final concentration of 100 μM were used. For evaluating the Human neutrophil elastase inhibitory activity, neutrophil elastase (Enzo Life Sciences, BML-SE284) with a final concentration of 0.00001 U/μL and a substrate peptide Suc (OMe)-Ala-Ala-Pro-Val-MCA (PEPTIDE […], INC., 3153-v) with a final concentration of 100 μM were used.
The specificities for other proteases were evaluated using the degradation of a substrate peptide as an index. […] Thereafter, 50 μL of a substrate diluted with an assay buffer was added thereto, and the fluorescence signal was measured using Enspire (PerkinElmer). […]

[6] = biological target: T7, KLK4 (human, UniProt Q9Y5K2); assay: as above
T7 construct: commercial enzyme (R&D Systems, 1719-SE); 1 µg/mL in the assay; substrate Boc-Val-Pro-Arg-AMC 100 µM; also called Human KLK4; hKLK4
Protocol: FIG. 3F includes graphs to evaluate the cross-reactivity of each inhibitory peptide with proteases, using the degradation of a peptide substrate as an index. For evaluating the Human KLK1 inhibitory activity, hKLK1 (R&D Systems, Inc., 2337-SE) with a final concentration of 0.1 μg/mL and a substrate peptide Pro-Phe-Arg-MCA (PEPTIDE […], INC., 3096-v) with a final concentration of 100 μM were used. For evaluating the Human KLK2 inhibitory activity, hKLK2 (R&D Systems, Inc., 4104-SE) with a final concentration of 2 μg/mL and a substrate peptide Pro-Phe-Arg-MCA (PEPTIDE […], INC., 3096-v) with a final concentration of 100 μM were used. For evaluating the Human KLK4 inhibitory activity, hKLK4 (R&D Systems, Inc., 1719-SE) with a final concentration of 1 μg/mL and a substrate peptide Boc-Val-Pro-Arg-AMC (R&D Systems, Inc., ES011) with a final concentration of 100 μM were used.
(§1) The specificities for other proteases were evaluated using the degradation of a substrate peptide as an index. As in the method described in (3-1), 25 μL each of a protease and a sample diluted with an assay buffer were mixed (to a final concentration of sample of 1 μM), followed by a reaction at 37° C. for 20 minutes. Thereafter, 50 μL of a substrate diluted with an assay buffer was added thereto, and the fluorescence signal was measured using Enspire (PerkinElmer). An assay buffer (50 mM Tris, 150 mM NaCl, pH 8.0) was used for the evaluation of the protease activity, and a PROTEOSAVE® SS96F black plate (Sumitomo Bakelite Co., Ltd.) was used for the reaction and the measurement. The combinations of the protease and the substrate used for the evaluation of the specificity were as follows.

[7] = biological target: T1, human KLK5; assay: SPR, BIAcore T200; biotinylated KLK5 captured on chip, peptide as analyte; single cycle kinetics, 1:1 model
Protocol: In order to measure the binding affinity of the KLK5 inhibitory peptides, surface plasmon resonance analysis was conducted using BIAcore T 200 (GE healthcare). A complementary strand of DNA of a streptavidin conjugate was captured by hybridization on Sensor Chip CAP (GE healthcare) on which single-stranded DNA immobilized. Next, KLK5 biotinylated using EZ-Link NHS-PEG4-Biotin (Thermo Fisher Scientific) was captured at a flow rate of 10 μL/min to immobilize about 10 RU. Thereafter, the KLK5 inhibitory peptide, serially diluted 2-fold with HBS-EP (0.625 to 10 nM), was added thereto as an analyte at a flow rate of 30 μL/min. In the BIAcore T 200 Evaluation software (version 2.0), kon and koff were calculated by analysis using Single cycle kinetics in a simple one-to-one Langmuir binding model. The dissociation constant KD was calculated as a ratio of koff/kₒₙ. Further, multiple KLK5 inhibitory peptides were measured by regenerating Sensor Chip CAP using a Regeneration buffer attached to a Biotin CAPture Kit (GE healthcare) and repeatedly capturing biotinylated KLK5.

[8] = biological target: T4, human KLK14; assay: cell-based or functional assay
[9] = biological target: T5, KLK8; assay: fluorogenic peptide substrate cleavage, 1 µM inhibitor
Protocol: FIG. 3G includes graphs to evaluate the cross-reactivity of each inhibitory peptide with proteases, using the degradation of a peptide substrate as an index. For evaluating the Human KLK7 inhibitory activity, hKLK7 with a final concentration of 1 μg/mL and a substrate peptide Mca-Arg-Pro-Lys-Pro-Val-Glu-Nval-Trp-Arg-Lys (Dnp)-NH₂ (R&D Systems, Inc., ES002) with a final concentration of 20 μM were used. For evaluating the Human KLK8 inhibitory activity, hKLK8 (UniProt: 060259, prepared by the inventors) with a final concentration of 5 nM and a substrate peptide Boc-Val-Pro-Arg-AMC (R&D Systems, Inc., ES011) with a final concentration of 100 μM were used. For evaluating the Human KLK12 inhibitory activity, hKLK12 (R&D Systems, Inc., 3095-SE) with a final concentration of 0.1 μg/mL and a substrate peptide Boc-Val-Pro-Arg-AMC (R&D Systems, Inc., ES011) with a final concentration of 100 μM were used.
as §1

[10] = biological target: human KLK7 (human, UniProt P49862 30-253); assay: cell-based or functional assay
[11] = biological target: bChymotrypsin; assay: fluorogenic peptide substrate cleavage, 1 µM inhibitor
Protocol: FIG. 3A includes graphs to evaluate the cross-reactivity of each inhibitory peptide with proteases, using the degradation of a peptide substrate as an index. For evaluating the Bovine trypsin inhibitory activity, trypsin (Pierce, 20233) with a final concentration of 5 nM and a substrate peptide Boc-Val-Pro-Arg-AMC (R&D Systems, Inc., ES011) with a final concentration of 100 μM were used. For evaluating the Human trypsin inhibitory activity, trypsin (Sigma-Aldrich Co. LLC, T6424) with a final concentration of 1 nM and a substrate peptide Boc-Val-Pro-Arg-AMC (R&D Systems, Inc., ES011) with a final concentration of 100 μM were used. For evaluating the Bovine α-chymotrypsin inhibitory activity, chymotrypsin (Worthington Biochemical Corporation, LS001434) with a final concentration of 10 nM and a substrate peptide Suc-Leu-Leu-Val-Tyr-MCA (PEPTIDE […], INC., 3120-v) with a final concentration of 100 μM were used.
as §1

T7 sequence (Q9Y5K2 31-254 limits assumed): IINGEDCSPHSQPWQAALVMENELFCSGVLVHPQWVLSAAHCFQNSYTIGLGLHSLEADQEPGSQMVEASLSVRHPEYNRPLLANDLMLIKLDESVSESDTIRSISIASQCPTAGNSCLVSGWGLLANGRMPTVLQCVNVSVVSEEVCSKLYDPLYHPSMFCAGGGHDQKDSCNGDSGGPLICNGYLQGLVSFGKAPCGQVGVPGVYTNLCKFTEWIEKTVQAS
Chain of human KLK7 (P49862 30-253): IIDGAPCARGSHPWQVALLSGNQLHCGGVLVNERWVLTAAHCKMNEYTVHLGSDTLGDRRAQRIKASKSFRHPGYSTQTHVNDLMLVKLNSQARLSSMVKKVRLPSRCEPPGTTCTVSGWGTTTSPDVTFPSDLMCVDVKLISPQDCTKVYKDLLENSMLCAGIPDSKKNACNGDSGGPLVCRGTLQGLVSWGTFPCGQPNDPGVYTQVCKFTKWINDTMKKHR
Chain of mouse KLK7 (Q91VE3 26-249): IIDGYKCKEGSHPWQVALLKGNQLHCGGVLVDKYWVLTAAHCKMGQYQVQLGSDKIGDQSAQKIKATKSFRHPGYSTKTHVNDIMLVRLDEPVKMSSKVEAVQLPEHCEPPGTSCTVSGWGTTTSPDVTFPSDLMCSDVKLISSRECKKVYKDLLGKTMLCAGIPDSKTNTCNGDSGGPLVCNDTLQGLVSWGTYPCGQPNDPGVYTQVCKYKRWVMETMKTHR
T6 sequence (P00747 97-810 limits assumed): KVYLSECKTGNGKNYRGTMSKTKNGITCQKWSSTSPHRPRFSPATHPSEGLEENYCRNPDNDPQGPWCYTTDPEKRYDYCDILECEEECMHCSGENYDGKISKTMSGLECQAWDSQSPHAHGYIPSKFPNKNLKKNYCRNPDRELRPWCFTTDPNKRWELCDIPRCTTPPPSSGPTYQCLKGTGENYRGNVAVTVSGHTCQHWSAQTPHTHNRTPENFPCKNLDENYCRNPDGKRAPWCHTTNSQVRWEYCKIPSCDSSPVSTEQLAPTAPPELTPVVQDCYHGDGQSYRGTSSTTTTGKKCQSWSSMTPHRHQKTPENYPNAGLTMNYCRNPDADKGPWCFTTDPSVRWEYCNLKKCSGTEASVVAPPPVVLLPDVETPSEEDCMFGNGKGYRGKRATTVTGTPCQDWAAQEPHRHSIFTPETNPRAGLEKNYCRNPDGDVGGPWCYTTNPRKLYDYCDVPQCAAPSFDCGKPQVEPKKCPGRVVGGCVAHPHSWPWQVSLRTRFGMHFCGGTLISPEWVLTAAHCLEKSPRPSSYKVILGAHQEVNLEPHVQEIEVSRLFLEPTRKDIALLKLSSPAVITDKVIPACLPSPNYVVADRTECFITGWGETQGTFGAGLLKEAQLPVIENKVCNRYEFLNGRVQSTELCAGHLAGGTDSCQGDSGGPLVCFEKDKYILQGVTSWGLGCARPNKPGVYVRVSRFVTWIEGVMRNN

Binder | IC50(nM) for hKLK5 [1] [nM] | IC50(nM) for mKLK5 [2] [nM] | IC50(nM) for mKLK7 [3] [nM] | IC50(nM) for mKLK14 [4] [nM] | binding result [5] | binding result [6] | Kd [7] [nM] | koff [7] [s⁻¹] | kon [7] [M⁻¹ s⁻¹] | IC50(nM) for hKLK14 [8] [nM] | binding result [9] | IC50(nM) for hKLK7 [10] [nM] | binding result [11]
KLK5 inhibitory peptide K51034 (SPINK2 mutant peptide made in E. coli) GPQFGLFSKYRTPNCGRYTTGGCNKEYEPVCGSDMSTYANECTLCMKIREGGHNIKIIRNGPCGG | 6.4 | 54 | > 1000 | > 1000 | binds | binds | 0.068 | 3.5e-05 | 520000 |  |  |  | 
KLK5 inhibitory peptide K50062 (SPINK2 mutant peptide made in E. coli) GPQFGLFSKYRTPNCQQYRELGCGRQYDPVCGSDMSTYANECTLCMKIREGGHNIKIIRNGPCGG | 7.5 | 10 | > 1000 | > 1000 |  | binds | 0.0025 | 2.9e-06 | 1.2e+06 | 499 | binds |  | 
KLK5/KLK7 inhibitory peptide K51005 (SPINK2 mutant peptide made in E. coli) GPQFGLFSKYRTPNCMQHARQGCHYDYDPVCGSDMSTYANECTLCMKIREGGHNIKIIRNGPCGG | 5.8 | 48 | 23 | 214 |  | binds | 0.34 | 0.0012 | 3.5e+06 |  |  | 17 | binds
KLK5/KLK7 inhibitory peptide K50031 (SPINK2 mutant peptide made in E. coli) GPQFGLFSKYRTPNCGEYKGRGCYYHYDPVCGSDMSTYANECTLCMKIREGGHNIKIIRNGPCGG | 5.4 | 40 | 4 | 244 |  |  | 0.061 | 5e-05 | 820000 | > 1000 |  | 13 | binds
KLK5/KLK7 inhibitory peptide K51057 (SPINK2 mutant peptide made in E. coli) GPQFGLFSKYRTPNCGTMQGSGCTYHYEPVCGSDMSTYANECTLCMKIREGGHNIKIIRNGPCGG | 12 | 149 | 27 | 437 |  |  | 0.26 | 0.0015 | 6e+06 | > 1000 |  | 24 | binds
